Measurements taken from patent US11198713B2, “Agents modulating beta-catenin functions and methods thereof” (FOG PHARMACEUTICALS, INC., priority 2017, dated 2021).
Numbered stars: 1 amine (or outer) side, 2 acyl side, 3 side chain; on linkers, the order of the positions; unused ones are H or OH. Bridge positions count the residues as written; N and C are the ends. Square brackets hold non-standard residues; d marks the D form. Primed or numbered codes have the meaning given here. MB(4) = Monomer B (PyrS), N-Alloc pyrrolidine stapling residue, (S)-3-amino-1-(allyloxycarbonyl)pyrrolidine-3-carboxylic acid, C=CCOC(=O)N1CC[C@@](N[*:1])(C(=O)[*:2])C1; R6″ = stapling residue, (R)-2-(5-hexenyl)alanine (drawn only), C=CCCCC[C@@](C)(N[*:1])C(=O)[*:2]; MB(15) = Monomer B = PyrS (PS), pyrrolidine stapling residue (Alloc on ring N); MB(11) = Monomer B (PyrS), pyrrolidine-bearing Alloc-olefin stapling residue; ME = Monomer E = RgN, acyclic alkyl-N(Alloc) olefin stapling residue; R7 = (R)-2-(6-heptenyl)alanine, C=CCCCCC[C@@](C)(N[*:1])C(=O)[*:2]; R6 = (R)-2-(5-hexenyl)alanine, C=CCCCC[C@@](C)(N[*:1])C(=O)[*:2]; S6 = (S)-2-(5-hexenyl)alanine, C=CCCCC[C@](C)(N[*:1])C(=O)[*:2]; MB(5) = Monomer B (PyrS), N-Alloc pyrrolidine stapling residue; MB(14) = Monomer B = PyrS, Alloc-pyrrolidine stapling residue; MF = Monomer F (SdN), acyclic alkyl-N(Alloc) stapling residue; Arg(Me2a) = CN(C)C(=N)NCCC[C@H](N)C(=O)O; Arg(Me2s) = CN=C(NC)NCCC[C@H](N)C(=O)O; 1Nal = N[C@@H](Cc1cccc2ccccc12)C(=O)O; hArg = N=C(N)NCCCC[C@H](N)C(=O)O; R8 = C=CCCCCCC[C@@](C)(N)C(=O)O; S8 = C=CCCCCCC[C@](C)(N)C(=O)O; R5 = C=CCCC[C@@](C)(N)C(=O)O; S5 = C=CCCC[C@](C)(N)C(=O)O; Aib = CC(C)(N)C(=O)O

target: T1, full-length beta-catenin (UniProt P35222 2-781, limits assumed); assay: competition FP, grade of FP EC50 (+++: <=100 nM)
T1 construct: mature; also called full-length ß-Catenin; β-catenin
T1 sequence (looked up): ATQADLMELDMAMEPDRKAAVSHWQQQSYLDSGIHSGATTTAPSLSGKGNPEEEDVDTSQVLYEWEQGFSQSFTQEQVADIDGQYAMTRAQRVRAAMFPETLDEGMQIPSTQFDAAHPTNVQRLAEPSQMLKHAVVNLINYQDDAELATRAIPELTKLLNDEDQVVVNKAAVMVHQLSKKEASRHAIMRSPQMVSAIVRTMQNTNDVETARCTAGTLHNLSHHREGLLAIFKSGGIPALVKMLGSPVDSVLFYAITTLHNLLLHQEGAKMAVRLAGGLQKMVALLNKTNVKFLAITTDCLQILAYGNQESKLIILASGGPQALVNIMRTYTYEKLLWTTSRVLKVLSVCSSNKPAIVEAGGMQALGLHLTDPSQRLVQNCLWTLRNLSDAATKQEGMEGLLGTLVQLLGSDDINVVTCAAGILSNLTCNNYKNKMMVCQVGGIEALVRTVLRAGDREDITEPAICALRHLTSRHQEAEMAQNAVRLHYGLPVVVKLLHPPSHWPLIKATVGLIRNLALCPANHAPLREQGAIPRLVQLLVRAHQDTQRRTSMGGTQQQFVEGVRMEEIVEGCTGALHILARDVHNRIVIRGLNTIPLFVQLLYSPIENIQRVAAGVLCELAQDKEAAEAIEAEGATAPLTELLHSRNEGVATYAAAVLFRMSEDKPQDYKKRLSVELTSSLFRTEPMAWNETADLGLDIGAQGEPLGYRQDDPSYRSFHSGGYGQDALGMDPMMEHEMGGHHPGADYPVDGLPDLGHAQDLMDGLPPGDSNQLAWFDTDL
Protocol: (§1) In some embodiments, a competition fluorescence polarization assay is used to assess binding of provided compounds to beta-catenin. In an exemplary procedure, solutions of provided compounds, e.g., provided stapled peptides, were prepared in a buffer (e.g., 50 mM Tris pH 8.0, 250 mM NaCl, 2% glycerol, 0.5 mM EDTA, 0.02% w/v sodium azide) using a 3-fold serial dilution from 5 µM. Probe solution (15 nM full-length ß-Catenin, 20 nM FITC labeled peptide in buffer) was prepared and incubated for a period of time, e.g., 5 minutes, and the a volume, e.g., 40 µL per well plated in suitable plate, e.g., a black polystyrene 384-well plate (Corning). Equal volume of the serial diluted peptide was added to the plate and incubated protected from light for 15 minutes prior to read. Reads were performed on a Spectramax M5 (Molecular Devices) in duplicate. Suitable probe was FITC-PEG1-PQ-S5-ILD-S5-HVRRVWR (SEQ ID NO: 1) (hydrocarbon staple formed by two S5 via olefin metathesis) and/or FITC-bA-PQ-S5-ILD-S5-HVRRVWR (SEQ ID NO: 3) (hydrocarbon staple formed by two S5 via olefin metathesis). […] Another peptide, FPO217c (Ac-AR_8ILDAHIM$B5$RVW (SEQ ID NO: 280), with N-terminal proline removed and valine replaced with isoleucine compared to FP0025c) was prepared.

| Binder | FP EC50 [nM] |
| --- | --- |
| Ac-A[R6]ILDAHI[MF]RVW-NH2 (staple 2-9; also: carbamate staple, isomer 1, olefin geometry not assigned, also called FP0502c (Peak 1)) [FP0502c Isomer 1] | ≤ 100 |
| AXILDAHIXRVW (not fully specified; Ac-A-MI-I-L-D-A-H-I-MF-R-V-W-NH2; carbamate staple MI/MF) [FP0587c] | ≤ 100 |
| AXILDAHIXRVW (not fully specified; Ac-A-MA-I-L-D-A-H-I-MF-R-V-W-NH2; carbamate staple MA/MF) [FP0611c] | ≤ 100 |
| Ac-A[R8]ILDAHI[MB(4)][Arg(Me2s)]VW-NH2 (staple 2-9) [FP0640c] | ≤ 100 |
| Ac-A[R8]ILDAHI[MB(4)][Arg(Me2a)]VW-NH2 (staple 2-9) [FP0639c] | ≤ 100 |
| Ac-A[R8]ILD[Aib]HI[MB(15)]RVW-NH2 (staple 2-9) [FP0645c] | ≤ 100 |
| Ac-A[MF]ILDAHI[MB(5)]RVW-NH2 (staple 2-9) [FP0626c] | ≤ 100 |
| Ac-[R8]ILDAHI[MB(14)]RVW-NH2 (staple 1-8) [FP0220c] | ≤ 100 |
| AXILDAHIXRVW (Ac-A-R8-I-L-D-A-H-I-MB-R-V-W-NH2; carbamate staple R8/MB with the olefin reduced to -CH2-CH2-, also called FPO217rc) [FP0217rc] | ≤ 100 |
| AXILDAHIXRVW (not fully specified; Ac-A-MI-I-L-D-A-H-I-MG-R-V-W-NH2; carbamate staple MI/MG) [FP0588c] | ≤ 100 |
| AXILDAHIXRVW (not fully specified; Ac-A-R5-I-L-D-A-H-I-MH-R-V-W-NH2; carbamate staple R5/MH) [FP0510c Isomer 1] | ≤ 100 |
| AXILDAHIXRVW (not fully specified; Ac-A-R8-I-L-D-A-H-I-S5-R-V-W-NH2; hydrocarbon staple R8/S5) [FP0217s Isomer 2] | ≤ 100 |
| Ac-A[MI]ILDAHI[S6]RVW-NH2 (staple 2-9; also: amino staple MI/S6 (-N(R')-, after CO2 extrusion from carbamate staple), olefin E/Z not given here) [FP0507a] | ≤ 100 |
| Ac-A[R8]ILDAHI[MB(14)]RVW-NH2 [FP0217u] | ≤ 100 |
| Ac-A[R8]ILDAHI[MB(4)][hArg]VW-NH2 (staple 2-9) [FP0634c] | ≤ 100 |
| AXILDAHIXRVW (not fully specified; Ac-A-MA-I-L-D-A-H-I-MB-R-V-W-NH2; carbamate staple MA/MB) [FP0617c] | ≤ 100 |
| AXILDAHIXRVW (not fully specified; Ac-A-MA-I-L-D-A-H-I-MC-R-V-W-NH2; carbamate staple MA/MC) [FP0616c] | ≤ 100 |
| AXILDAHIXRVW (not fully specified; Ac-A-ME-I-L-D-A-H-I-MC-R-V-W-NH2; carbamate staple ME/MC) [FP0605c] | ≤ 100 |
| Ac-A[R6″]ILDAHI[MH]RVW-NH2 (staple 2-9; not fully specified; printed as Ac-A-R6-I-L-D-A-H-I-MH-R-V-W-NH2) [FP0511c Isomer 1] | ≤ 100 |
| AXILDAHIXRVW (not fully specified; Ac-A-MG-I-L-D-A-H-I-MC-R-V-W-NH2; carbamate staple MG/MC) [FP0598c] | ≤ 100 |
| AXILDAHIXRVW (not fully specified; Ac-A-R8-I-L-D-A-H-I-S5-R-V-W-NH2; hydrocarbon staple R8/S5) [FP0217s Isomer 1] | ≤ 100 |
| Ac-A[R5]ILDAHI[MH]RVW-NH2 (staple 2-9; not fully specified; printed as Ac-A-R5-I-L-D-A-H-I-MH-R-V-W-NH2) [FP0510c Isomer 2] | ≤ 100 |
| Ac-A[R6″]ILDAHI[MH]RVW-NH2 (staple 2-9) [FP0511a] | ≤ 100 |
| Ac-A[MI]ILDAHI[S5]RVW-NH2 (staple 2-9; also: carbamate staple, olefin geometry not assigned) [FP0506c Isomer 2] | ≤ 100 |
| AXILDAHIXRVW (not fully specified; Ac-A-ME-I-L-D-A-H-I-S8-R-V-W-NH2; carbamate staple ME/S8) [FP0335c Isomer 2] | ≤ 100 |
| AXILDAHIXRVW (not fully specified; Ac-A-ME-I-L-D-A-H-I-MF-R-V-W-NH2; carbamate staple ME/MF) [FP0601c] | ≤ 100 |
| AXILDAHIXRVW (not fully specified; Ac-A-ME-I-L-D-A-H-I-MB-R-V-W-NH2; carbamate staple ME/MB) [FP0604c] | ≤ 100 |
| Ac-A[R6″]ILDAHI[MH]RVW-NH2 (staple 2-9; not fully specified; printed as Ac-A-R6-I-L-D-A-H-I-MH-R-V-W-NH2) [FP0511c Isomer 2] | ≤ 100 |

target: T1, full-length beta-catenin; assay: competition FP, grade of FP EC50 (++: 100-500 nM)
Protocol: as §1

| Binder | FP EC50 [nM] |
| --- | --- |
| Ac-A[R8]ILNAHI[MB(14)]RVW-NH2 (staple 2-9) [FP0218c] | 100 to 500 |
| Ac-A[R8]ILDAHI[MB(4)]K(Me)VW-NH2 (staple 2-9) [FP0636c] | 100 to 500 |
| Ac-A[R8]ILTAHI[MB(14)]RVW-NH2 (staple 2-9) [FP0219c] | 100 to 500 |
| AXILDAHIXAVW (not fully specified; Ac-A-R8-I-L-D-A-H-I-MB-A-V-W-NH2; carbamate staple R8/MB) [FP0410c] | 100 to 500 |
| AXIADAHIXRVW (not fully specified; Ac-A-R8-I-A-D-A-H-I-MB-R-V-W-NH2; carbamate staple R8/MB) [FP0406c] | 100 to 500 |
| Ac-A[R8]ILDAHI[MB(4)]KVW-NH2 (staple 2-9) [FP0635c] | 100 to 500 |
| Ac-A[R8]ILDAHI[MB(11)][1Nal]VW-NH2 (staple 2-9; also: carbamate staple R8/MB (-N(R')-C(O)-O-), isomer not specified) [FP0365c] | 100 to 500 |
| AXILDAHIXRVW (not fully specified; Ac-A-R5-I-L-D-A-H-I-MF-R-V-W-NH2; carbamate staple R5/MF) [FP0501c] | 100 to 500 |
| Ac-A[R7]ILDAHI[MD]RVW-NH2 (staple 2-9; not fully specified; printed as Ac-A-R7-I-L-D-A-H-I-MD-R-V-W-NH2; also: carbamate staple R7/MD (-N(R')-C(O)-O-)) [FP0495c] | 100 to 500 |
| AXILDAHIXRVW (not fully specified; Ac-A-ME-I-L-D-A-H-I-S8-R-V-W-NH2; carbamate staple ME/S8) [FP0335c Isomer 1] | 100 to 500 |
| Ac-A[ME]ILDAHI[S8]RVW-NH2 (staple 2-9) [FP0335a] | 100 to 500 |
| PAXILDAHVXRVW (not fully specified; Ac-P-A-R5-I-L-D-A-H-V-S8-R-V-W-NH2; hydrocarbon staple R5/S8) [FP0212s Isomer 2] | 100 to 500 |
| Ac-A[R6]ILDAHI[MF]RVW-NH2 (staple 2-9; also: carbamate staple, isomer 2, olefin geometry not assigned, also called FP0502c (Peak 2)) [FP0502c Isomer 2] | 100 to 500 |
